Assay results from US20230340114A1 (IMMUNE ONC THERAPEUTICS, published 2023).

B1: 4-3ab (bispecific antibody, human IgG1, kappa, L234A L235A)
heavy 1: not shown
heavy 2: EVQLVESGGGLVQPGGSLRLSCAASGFSLSSSYWISWVRQAPGKGLEWIGSIDSGSVGITYYATWVKGRFTISRDNSKNTLYLQMNSLRAEDTAVYYCARHGDNWALDLWGQGTLVTVSSASTKGPSVFPLAPSSKSTSGGTAALGCLVKDYFPEPVTVSWNSGALTSGVHTFPAVLQSSGLYSLSSVVTVPSSSLGTQTYICNVNHKPSNTKVDKRVEPKSCDKTHTCPPCPAPEAAGGPSVFLFPPKPKDTLMISRTPEVTCVVVDVSHEDPEVKFNWYVDGVEVHNAKTKPREEQYNSTYRVVSVLTVLHQDWLNGKEYKCKVSNKALPAPIEKTISKAKGQPREPQVCTLPPSREEMTKNQVSLSCAVKGFYPSDIAVEWESNGQPENNYKTTPPVLDSDGSFFLVSKLTVDKSRWQQGNVFSCSVMHEALHNHYTQKSLSLSPG
light 1: DIVMTQSPDSLAVSLGERATINCKSSQSLLNSRTRKNYLAWYQQKPGQPPKLLIYWASTRQSGVPDRFSGSGSGTDFTLTISSLQAEDVAVYYCTQSHTLRTFGGGTKVEIKPDIQNPDPAVYQLRDSKSSDKSVCLFTDFDSQTQVSQSKDSDVYITDKCVLDMRSMDFKSNSAVAWSQKSDFACANAFQNSIIPEDTFFPSPESS
light 2: DIQMTQSPSTLSASVGDRVTITCRASQSISSWLAWYQQKPGKAPKLLIYKASTLASGVPSRFSGSGSGTEFTLTISSLQPDDFATYYCQHGYIRGDLDNVFGGGTKVEIKRTVAAPSVFIFPPSDEQLKSGTASVVCLLNNFYPREAKVQWKVDNALQSGNSQESVTEQDSKDSTYSLSSTLTLSKADYEKHKVYACEVTHQGLSSPVTKSFNRGEC
notes: LILRB4 arm from H7K3m5, CD3 arm from WO2019057099; human IgG1 constant domains with knob-in-hole and effector-reducing mutations; also called first-generation LILRB4/CD3 bispecific antibody No. 1
B2: 4ab-3 (bispecific antibody, human IgG1, kappa, L234A L235A)
heavy 1: not shown
heavy 2: EVQLVESGGGLVQPGGSLRLSCAASGFSLSSSYWISWVRQAPGKGLEWIGSIDSGSVGITYYATWVKGRFTISRDNSKNTLYLQMNSLRAEDTAVYYCARHGDNWALDLWGQGTLVTVLEDLKNVFPPEVAVFEPSEAEISHTQKATLVCLATGFYPDHVELSWWVNGKEVHSGVCTDPQPLKEQPALQDSRYALSSRLRVSATFWQNPRNHFRCQVQFYGLSENDEWTQDRAKPVTQIVSAEAWGRASDKTHTCPPCPAPEAAGGPSVFLFPPKPKDTLMISRTPEVTCVVVDVSHEDPEVKFNWYVDGVEVHNAKTKPREEQYNSTYRVVSVLTVLHQDWLNGKEYKCKVSNKALPAPIEKTISKAKGQPREPQVCTLPPSREEMTKNQVSLSCAVKGFYPSDIAVEWESNGQPENNYKTTPPVLDSDGSFFLVSKLTVDKSRWQQGNVFSCSVMHEALHNHYTQKSLSLSPG
light 1: not shown
light 2: DIQMTQSPSTLSASVGDRVTITCRASQSISSWLAWYQQKPGKAPKLLIYKASTLASGVPSRFSGSGSGTEFTLTISSLQPDDFATYYCQHGYIRGDLDNVFGGGTKVEIKPDIQNPDPAVYQLRDSKSSDKSVCLFTDFDSQTQVSQSKDSDVYITDKCVLDMRSMDFKSNSAVAWSQKSDFACANAFQNSIIPEDTFFPSPESS
notes: also called first-generation LILRB4/CD3 bispecific antibody No. 2
B3: 4ab3-4ab (bispecific antibody, human IgG1, kappa, L234A L235A)
heavy 1: not shown
heavy 2: B2 heavy 2
light 1: not shown
light 2: B2 light 2
notes: also called first-generation LILRB4/CD3 bispecific antibody No. 6

Experiments:
[1] = biological target: T1, human LILRB4 expressed on cells (human, UniProt Q8NHJ6 22-448); test: cell-based or functional assay
[2] = biological target: T2, recombinant human LILRB4 protein (Sino Biological, cat #16742-H08H) (human, UniProt Q8NHJ6 22-259); test: SPR (Biacore 8K), LILRB4 immobilized on CM5 chip, bispecific as analyte, 1:1 model
T2 construct: extracellular domain; also called LILRB4 recombinant protein (Sino Biological); Human LILRB4 ECD-his; not shown: his tag
Description: (§1) Binding affinities of first-generation bispecific antibodies to recombinant CD3e-CD3d heterodimer protein (Acro Biosystems) or LILRB4 recombinant protein (Sino Biological) were measured by surface plasmon resonance using a Biacore 8K instrument. Briefly, CD3e-CD3d or LILRB4 protein was immobilized on a CM5 chip with EDC and NHS according to standard protocols. […] The chip was regenerated using 10 mM glycine pH 1.5 as the regeneration buffer. The sensorgrams for reference channel Fc1 and buffer channel were subtracted from the test sensorgrams and the experimental data was fitted by 1:1 binding model.

[3] = biological target: recombinant CD3e-CD3d heterodimer protein (Acro Biosystems) (UniProt P07766 23-126; P04234 22-105); test: SPR (Biacore 8K), CD3e-CD3d immobilized on CM5 chip, bispecific as analyte, 1:1 model
Description: as §1

[4] = biological target: T1, human LILRB4 expressed on cells; test: FACS (Geo MFI) on normal human monocytes; panel assigned to monocytes by the order in legend paragraph 86

Sequence of recombinant CD3e-CD3d heterodimer protein (Acro Biosystems) (P07766 23-126 limits assumed, chain 1 of 2): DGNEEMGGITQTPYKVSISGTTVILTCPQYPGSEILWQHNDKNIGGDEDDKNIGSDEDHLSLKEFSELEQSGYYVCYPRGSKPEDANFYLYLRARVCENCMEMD
Sequence of recombinant CD3e-CD3d heterodimer protein (Acro Biosystems) (P04234 22-105 limits assumed, chain 2 of 2): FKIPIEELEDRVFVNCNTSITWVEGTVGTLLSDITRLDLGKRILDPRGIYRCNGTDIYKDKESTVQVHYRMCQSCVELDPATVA

| Binder | Monocyte (max %), Donor 1 [1] [%] | Monocyte (max %), Donor 2 [1] [%] | Monocyte (max %), Donor 3 [1] [%] | Monocyte killing EC50, Donor 2 [1] [pM] | T-cell cytotoxicity, THP-1 (max %) [1] [%] | T-cell cytotoxicity, THP-1 EC50 [1] [pM] | Kd [2] [pM] | Kd [3] [pM] | EC50 (read off the curve) [4] [pM] | Monocyte killing EC50, Donor 3 [1] [pM] | Monocyte killing EC50, Donor 1 [1] [pM] | T-cell cytotoxicity, THP-1 EC50 (estimated) [1] [pM] |
| --- | --- | --- | --- | --- | --- | --- | --- | --- | --- | --- | --- | --- |
| B1 | 43 | 41 | 13 | 9.4 | 98 | 0.36 | 190 | 49600 | ~800 |  |  |  |
| B2 | 43 | 34 | 32.5 | 29 | 98.6 | 0.084 | 270 | 33400 | ~400 | 9.25 |  |  |
| B3 | 29 | 44 | 44 | 0.93 | 98.1 |  | 260 | 57300 |  | 1.6 | 0.43 | < 0.01 |
